The results in this text go back to article PMC7560607, “Synapse type-specific proteomic dissection identifies IgSF8 as a hippocampal CA3 microcircuit organizer” (Nature Communications, 2020).

Experiment [1] has as its target T1, Tenascin-R, AP- or Fc-tagged (interactome library) ( (human or mouse sequence …, UniProt Q8BYI9 32-1358)).
T1 construct: In the BLI experiment only the Fc fusion stood, captured from conditioned medium of EXPI293 cells on anti-human Fc sensors; also called TenR; TenR-Fc/AP; source: Expi293 cells, transfected, conditioned medium used without purification; not shown: Fc (human IgG1) in the Fc fusion, C-terminal, kept; alkaline phosphatase (human) in the AP fusion, C-terminal, kept
T1 sequence (looked up): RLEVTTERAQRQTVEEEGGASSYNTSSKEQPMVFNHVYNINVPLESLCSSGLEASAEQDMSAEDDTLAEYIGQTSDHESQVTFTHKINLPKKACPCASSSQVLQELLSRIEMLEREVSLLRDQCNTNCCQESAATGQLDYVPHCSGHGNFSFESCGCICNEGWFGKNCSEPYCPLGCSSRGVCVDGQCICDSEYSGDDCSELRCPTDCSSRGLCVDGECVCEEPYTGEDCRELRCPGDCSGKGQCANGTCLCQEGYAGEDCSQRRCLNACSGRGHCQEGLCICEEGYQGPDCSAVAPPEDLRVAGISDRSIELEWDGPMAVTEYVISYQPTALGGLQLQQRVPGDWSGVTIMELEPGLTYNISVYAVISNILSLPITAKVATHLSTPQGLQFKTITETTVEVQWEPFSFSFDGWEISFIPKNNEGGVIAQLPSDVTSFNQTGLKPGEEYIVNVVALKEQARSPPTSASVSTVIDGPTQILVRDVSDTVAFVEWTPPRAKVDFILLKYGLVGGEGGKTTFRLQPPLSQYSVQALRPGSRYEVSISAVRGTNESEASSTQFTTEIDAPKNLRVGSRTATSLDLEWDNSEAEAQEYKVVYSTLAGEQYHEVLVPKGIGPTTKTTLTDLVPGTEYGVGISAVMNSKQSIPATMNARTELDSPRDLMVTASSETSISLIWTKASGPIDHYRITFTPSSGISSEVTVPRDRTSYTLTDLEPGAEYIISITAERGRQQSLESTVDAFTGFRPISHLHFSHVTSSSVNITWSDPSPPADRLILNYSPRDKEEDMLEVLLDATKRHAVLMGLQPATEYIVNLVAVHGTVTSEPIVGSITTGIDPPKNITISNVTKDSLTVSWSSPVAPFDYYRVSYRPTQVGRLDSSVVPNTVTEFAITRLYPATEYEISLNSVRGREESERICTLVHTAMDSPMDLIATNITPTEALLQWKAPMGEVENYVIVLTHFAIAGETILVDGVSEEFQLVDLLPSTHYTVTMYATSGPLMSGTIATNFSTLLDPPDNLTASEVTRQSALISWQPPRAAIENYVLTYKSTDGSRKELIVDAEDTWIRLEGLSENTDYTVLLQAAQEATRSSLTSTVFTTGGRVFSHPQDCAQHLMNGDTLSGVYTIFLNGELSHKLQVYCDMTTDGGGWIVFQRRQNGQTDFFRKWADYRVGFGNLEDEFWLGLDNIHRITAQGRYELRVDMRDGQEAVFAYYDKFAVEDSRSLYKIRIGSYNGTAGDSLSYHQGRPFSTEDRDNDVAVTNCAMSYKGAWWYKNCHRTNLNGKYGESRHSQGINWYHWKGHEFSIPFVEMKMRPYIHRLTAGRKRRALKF
Kind of experiment: BLI; BLItz, RT; TenR-Fc captured from EXPI293 conditioned medium on anti-human Fc sensors; purified IgSF8 34-0.133 µM in twofold dilution; 10 mM Hepes pH 7.4, 150 mM NaCl, 1 mM CaCl2, 0.2% Tween20, 1% BSA; KD from response vs concentration; Fc-only sensor subtracted. The following applies: one partner purified.

Experiment [2] has as its target T2, TenR-Fc (Tenascin-R fused to the Fc region of human IgG1) ( (human or mouse sequences …, UniProt Q8BYI9 32-1358)).
T2 construct: Tenascin-R, secreted ECM protein; also called Tenascin-R-Fc; source: EXPI293 cells, transfected, conditioned medium; not shown: Fc (human IgG1), C-terminal, kept
T2 sequence (looked up): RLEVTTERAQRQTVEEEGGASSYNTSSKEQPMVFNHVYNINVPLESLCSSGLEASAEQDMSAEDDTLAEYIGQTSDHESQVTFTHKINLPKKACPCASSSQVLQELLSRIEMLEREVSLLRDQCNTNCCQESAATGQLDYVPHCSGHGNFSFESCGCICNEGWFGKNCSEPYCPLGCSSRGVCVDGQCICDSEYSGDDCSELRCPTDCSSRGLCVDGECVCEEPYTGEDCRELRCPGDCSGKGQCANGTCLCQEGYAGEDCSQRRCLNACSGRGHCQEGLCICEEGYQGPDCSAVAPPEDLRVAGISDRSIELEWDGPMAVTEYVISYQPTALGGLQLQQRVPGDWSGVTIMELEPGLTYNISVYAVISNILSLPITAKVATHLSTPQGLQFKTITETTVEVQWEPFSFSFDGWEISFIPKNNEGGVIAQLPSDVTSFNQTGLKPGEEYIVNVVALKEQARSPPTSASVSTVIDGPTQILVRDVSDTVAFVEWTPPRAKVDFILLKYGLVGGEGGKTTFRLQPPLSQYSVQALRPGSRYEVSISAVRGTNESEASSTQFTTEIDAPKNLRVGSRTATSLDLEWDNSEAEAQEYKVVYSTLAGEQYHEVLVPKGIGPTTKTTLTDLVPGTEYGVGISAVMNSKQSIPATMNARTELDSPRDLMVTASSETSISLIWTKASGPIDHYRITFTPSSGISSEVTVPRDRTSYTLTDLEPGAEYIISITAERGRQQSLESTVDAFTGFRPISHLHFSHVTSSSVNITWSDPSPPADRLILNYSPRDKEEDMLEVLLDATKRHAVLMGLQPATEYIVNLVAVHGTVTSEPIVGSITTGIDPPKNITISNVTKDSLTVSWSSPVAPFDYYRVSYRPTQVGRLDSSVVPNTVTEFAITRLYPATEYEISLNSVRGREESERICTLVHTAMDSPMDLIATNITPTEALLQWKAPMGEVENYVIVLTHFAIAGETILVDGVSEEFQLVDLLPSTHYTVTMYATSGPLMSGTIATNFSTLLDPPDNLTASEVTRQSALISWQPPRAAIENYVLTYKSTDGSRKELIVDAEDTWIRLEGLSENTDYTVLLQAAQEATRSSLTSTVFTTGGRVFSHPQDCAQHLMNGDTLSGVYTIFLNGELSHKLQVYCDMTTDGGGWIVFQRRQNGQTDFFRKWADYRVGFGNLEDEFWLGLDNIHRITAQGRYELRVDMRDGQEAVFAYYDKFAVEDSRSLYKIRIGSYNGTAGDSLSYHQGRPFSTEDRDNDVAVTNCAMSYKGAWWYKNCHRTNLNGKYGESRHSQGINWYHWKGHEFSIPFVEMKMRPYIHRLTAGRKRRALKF
Kind of experiment: BLI; BLItz, room temperature; TenR-Fc captured from conditioned medium on anti-human Fc biosensors; purified IgSF8 34-0.133 uM in twofold dilution; association in 10 mM Hepes pH 7.4, 150 mM NaCl, 1 mM CaCl2, 0.2% Tween20, 1% BSA; Fc-only sensor subtracted; binding response against concentration fitted as one site specific binding. As to conditions: one partner purified. (Biolayer interferometry detects binding as a change in optical thickness at a sensor tip.)

Usually Kd stands for the concentration at which binding is half-saturated. Read a low Kd as higher affinity.

B1: purified IgSF8 (BLI analyte) (natural protein)
chain: RQVHVPRGPLYRVAGTAVSISCNVSDYEGPAQQDFEWFMYRPEAPATSLGIVSTKDSQFSYAVFGPRVASGDLQVQRLKGDSVVLKIARLQAQDSGFYECYTPSTDTQYLGNYSAKVELRVLPDELQVSAAPPGPRGRQAATSPSRLTVHEGQELALGCLAQTKTKKHTHLSVSFGRAIPEAPVGRATLQEVVGLRSDMAVEAGAPYAERLASGELRLSKEGTDRYRMVVGGAQAGDSGTYHCTAAEWIQDPDGSWVQVAEKRAVLAHVDVQTLSSQLAVTVGPGERRIGPGEPLELLCNVSGALPPPGRHAAYSVGWEMAPAGAPGPGRLVAQLDTEGIGSLGPGYEDRHIAMEKVASRTYRLRLEAARPADAGTYRCLAKAYVRGSGTRLREAASARSRPLPVHVREEGVVLEAVAWLAGGTVYRGETASLLCNISVRGGPPGLRLAASWWVERPEEGELSSGPAQLVGGVGQDGVAELGVRPGGGPVSVELVGPRSHRLRLHGLGPEDEGIYHCAPSAWVQHADYSWYQAGSARSGPVTVYPYTHAVDT
modifications: Same molecule as Sm1. Secreted ectodomain, likely N-glycosylated; limits by convention (UniProt extracellular domain without the signal peptide).
As for B1, in experiment [1], the Kd is ~1.4 µM.

B2: IgSF8 (purified IgSF8 protein used as analyte in biolayer interferometry) (receptor)
chain: RQVHVPRGPLYRVAGTAVSISCNVSDYEGPAQQDFEWFMYRPEAPATSLGIVSTKDSQFSYAVFGPRVASGDLQVQRLKGDSVVLKIARLQAQDSGFYECYTPSTDTQYLGNYSAKVELRVLPDELQVSAAPPGPRGRQAATSPSRLTVHEGQELALGCLAQTKTKKHTHLSVSFGRAIPEAPVGRATLQEVVGLRSDMAVEAGAPYAERLASGELRLSKEGTDRYRMVVGGAQAGDSGTYHCTAAEWIQDPDGSWVQVAEKRAVLAHVDVQTLSSQLAVTVGPGERRIGPGEPLELLCNVSGALPPPGRHAAYSVGWEMAPAGAPGPGRLVAQLDTEGIGSLGPGYEDRHIAMEKVASRTYRLRLEAARPADAGTYRCLAKAYVRGSGTRLREAASARSRPLPVHVREEGVVLEAVAWLAGGTVYRGETASLLCNISVRGGPPGLRLAASWWVERPEEGELSSGPAQLVGGVGQDGVAELGVRPGGGPVSVELVGPRSHRLRLHGLGPEDEGIYHCAPSAWVQHADYSWYQAGSARSGPVTVYPYTHAVDT
modifications: Secreted ectodomain, likely N-glycosylated. Limits are the UniProt extracellular domain without the signal peptide. Mouse is inferred from the mouse IgSF8 cDNA (BC048387) and the mouse IgSF8-His used
Take B2: in experiment [2], the dissociation constant Kd turned out to be 1.39 µM.
